Patent US5574007

Tests used:
thrombin [1] = biological target: thrombin
protein C [2] = biological target: protein C
thrombin [3] = biological target: thrombin; remark: listed apart in the source
protein C [4] = biological target: protein C; remark: listed apart in the source

Row | production of activated protein C (thrombin [1]) [pmol] | production of activated protein C (protein C [2]) [pmol] | amount of activated protein C formed, 30 min after the polypeptide addition (Example 5) (% larger than with E456Glu) (thrombin [3]) | amount of activated protein C formed, 30 min after the polypeptide addition (Example 5) (% larger than with E456Glu) (protein C [4]) | Binder
1 | 1.7 | 1.7 | – | – | polypeptide E45 (receptor) DPCFRANCEYQCQPLNQTSYLCVCAEGFAPIPHEPHRCQMFCNQTACPADCDPNTQASCECPEGYILDDGFICTDI
2 | – | – | 80 | 80 | polypeptide E456GlaAsp (receptor, gamma-carboxyglutamic acid (Gla) in place of the Glu inserted before Asp367 (third residue of the purified polypeptide, where Edman degradation detected no amino acid; Gla confirmed by amino acid analysis)) PVEDPCFRANCEYQCQPLNQTSYLCVCAEGFAPIPHEPHRCQMFCNQTACPADCDPNTQASCECPEGYILDDGFICTDIDECENGGFCSGVCHNLPGTFECICGPDSALVRHIGTDC
